Assay results from the DeepSol protein solubility set.

Test: soluble on expression in E. coli; label from the status in PepcDB or PDB records

| Sequence | soluble on expression in E. coli |
| --- | --- |
| MGSDKIHHHHHHEDSNPNALSPGIFWKSEGDIMKGLTSVYGALQPNASWAIPFERYIVIDGYRSDEITHRDDVTSWMNISSFNVEPTNSVVKTEWTNLYKGINYANQCLTNIPTVPGDSESLNALKKQSIAEARFLRAYFYYRLYVNFGERVPIYKEALAGTDEEFYPPQANPGELVSLIETELKEVQSDLPESYEESEKGRVTRYTAAALLGKFYMFRKELSKAEVEFKKIIDKEGSLFGLMENWADNFDGMHKNNKESLFEIQFTGDRSGGQYEYNLFTVHLGPMAGLDAYEEAYPTDWMCQTLLADKTIDGKSSDRALHTLIFDDPECRPFYYKNGKSFKDYHKEGEIFWHKYVTYTEGMSDYWDYSFFNVSVIRYADVLLLYAECLNDKGETTEAINIINKVRARVNVPALPLTMSKAEVLKHLQDKERPCELALEGSRWYDLVRWGIVEETLKAHNKPFVENYVDTKHQLFPIPHSEFLLNPDWEQNPNYSK | not soluble |
| MKRHIAMAAGALALALGAQAAHAGPTLDAVKKKGFVQCGLTDGVAGFSATNSKGEWEGMDVDICRAVAAAVFGDAGKFKGTALSTQQRFTALQSGEVDVLLRTVTLTQTRDTSLGLAAVAASFYDGQGVLVRKALGVKSAKELDEATICVQPGTTTELNLADWFRANGIKFTPVVIDKVTEVVRAFESGRCDAFTDDASQLAAVRATQVAKPDDFEILPERFSKEPLGPMVRQGDENWLGIVRWTLFALMEAEEYGITQQNVDEMLKSKNPNVLRILGVTPGAGKNMGLDEKWAYNAIKAVGNYSQIFERNVGKDSRLGLQRGVNALWSQGGAMYPWPIR | not soluble |
| AIAPTGEDNIVVPPAFDGESVSKNKEIYVTFGVDVDAVAGWLGSYGGEDSPFDISRGICAAEVGVPRLLELFRRFDLKTTWFLPGHSVESFPLQMRQVVAAGHEVGAHGYSHENPVRMTPKQEEDVLALSVQILENLTGKKPKGYVAPWWELSAATPELLLRYGFKYDHSQGHHDFQPYYARTAEKWTNIDYSKPARDWMKPLDRGQSVDLVEIPANWYVDDLPPMMFIKSAPNSHGFMNPRDIEDLWRDQFEWVYREYNFAVFPITIHPDVSGRPQVLLMLERFISYIRRFPGVHWTTMEEVAQIFRNKQPFLNA | soluble |
| MSLINRKDALPITRQCRLLDLSRSGFYYTPRPVSAKDLELMRQIDEIHLAFPFYGSRKIRDELWARKHNVGLDKVRRLMRRMGIEALYVKPRLSLSYPEHVKYPYLLRRLEINRANQVWITDITYIPMAKGFCYLVAIMDEGHHHHHH | not soluble |
| SAKNAYTKLGTDDNAQLLDIRATADFRQVGSPNIKGLGKKAVSTVYNGEDKPGFLKKLSLKFKDPENTTLYILDKFDGNSELVAELVALNGFKSAYAIKDGAEGPRGWLNSSLPWIEPKKT | soluble |
| MGSSHHHHHHSSGLGPGGSHMASMSDSEVNQEAKPEVKPEVKPETHINLKVSDGSSEIFFKIKKTTPLRRLMEAFAKRQGKEMDSLRFLYDGIRIQADQTPEDLDMEDNDIIEAHREQIGGSLGRACKYENPARWSEQEQAIKGVYSSWVTDNILAMARPSSELLEKYHIIDQFLSHGIKTIINLQRPGEHASCGNPLEQESGFTYLPEAFMEAGIYFYNFGWKDYGVASLTTILDMVKVMTFALQEGKVAIHCHAGLGRTGVLIACYLVFATRMTADQAIIFVRAKRPNSIQTRGQLLCVREFTQFLTPLRNIFSEGHHHHHH | soluble |
| GPGSMDVLVPRAASSGAVGRTPAARTFSAAPPSASSSLCVVGSADHGLKVFNLCTMRELKTLYTKTCGHTEWVTACRFLSDRRVISGGMDSKLCLWNDVTRGGPGRCVDLLGHTGSISQVEVNERHGRSIAMSSSYDRTIRVWELDGIAGGREMGCLSGHKGPVTQFSWLETEVLSGDRQGTVKLWDVETAQCHLTASSKRGQIGSLAHLVHPGVGHLALFGDQGGALTVVDARGPSSAKPLFQDVLHPGGMVTFIRAPSPTAVSAPLIVTCGADKRIIVRDARHNFAEVCAITDHDDFVYSMEVIGNILLSGAGNGRLLVHDVETGELLYELKANAAAVREMFASPSVLVAAGDDGNAKVFDFM | not soluble |
| MGSDKIHHHHHHMTVTDLSKKPLLLLDHVTMQFGGLVAVDDFTNEIREGELVGLIGPNGAGKTTVFNVITGIYTPTKGRIVFNDIDITGLRPYQITHLGIARTFQNIRLFSDMTVLENVLVAQHHVLSNPDADRILVKHGKPRKGHGRFWFWRAVTKIGYLKKEKEMVERAKDLIKRVGLEKVMYEKASSLPYGEQRKLEIARALATEPKLILLDEPAAGMNPKETEDLMEFIKQIRKDFNLTVLLIEHDMKVVMGICERIIVMDYGRIIAEGTPKEIQNDPRVIEAYLGREWESV | not soluble |
| VVRVGRRSATFYPPEGAAALIGDFTDWERNPIPLEGPLTLEFPEGAYVEYAFLDREGRPFPDPDNPEKAENPWWSYPRAIKLPGFRYEAPPAPKEEPKVHRHRLGERRFYVAETGPSPKATVVAQDGVAFYRTAGLHKVARALFEAGEIPPVRLVFVEPIDRNTEYRFNEAYEAEFHRVLEEVEGAYGPLNELVLVGASLGGLFSLWQAWRHPERFPKVLALSPALKAHPGGKDAYRDEEWLLARYAEARRLPRVYVEVGLLEWLLGPNRRLAALFADKKVPHAYRERPSGHNWVTWKQALAPGLRYLLGPQ | soluble |
| MKVGFFLLKFPLSSETFVLNQITAFIDMGFEVEIVALQKGDTQNTHVAWTKYNLAARTRWLQDEPTGKVAKLRHRASQTLRGIHRKNTWQALNLKRYGAESWNLILSAICGQVATPFRADVFIAHFGPAGVTAAKLRELGVIHGKIATIFHGIDISSREVLNHYTPEYQQLFRRGDLMLPISDLWAGRLQKMGCPREKIAVSRMGVDMTRFSPRPVKAPATPLEIISVARLTEKKGLHVAIEACRQLKEQGVAFRYRILGIGPWERRLRTLIEQYQLEDVVEMPGFKPSHEVKAMLDDADVFLLPSVTGADGDMEGIPVALMEAMAVGIPVVSTLHSGIPELVEADKSGWLVPENDARALAQRLAAFSQLDTDELAPVVKRAREKVEHDFNQQVINRELASLLQAL | not soluble |
| MQIGAKIRQLRIANQMTQEELADRAELSKGFISQIENDLTSPSINTLVDILQCLGTDLKTFFSDSEDKQIVFREKDYFSKTDNELKNTIEWVVPNSQKNAMEPIRMTLQPGGRSLEDHPHEGEEFGYVVKGSIEVHIGNECYRVNEGESFYFESTRKHYIVNVGESDAQVIWVSTPPTF | not soluble |
| MSKTHPPELKKYMDKEMDLKLNGNRRVSGILRGFDPFMNMVIDEAVEYQKDGGSVNLGMTVIRGNSVVIMEPKERIS | not soluble |
| MCEISVVMPVYNAEMHIKDAIESVLEQSFVDFEFILIDDGSTDHTSSIIQSYNDKRVRLIQNSHNFIESLNLGIENSLGKYMARMDGDDIMHIDRLKIQYAIMQEYPDVTVCGTWMNSIGTYSQTNGLLSTLSGWVEQPLLKFTKGNFLFHPTTMIRMDFLKKNALKYENYPYAEDFKFWVEIAKSGGRFYIDSQPLLYYRISDSQVSSQKSSEQRATTESIINEVLEYLMELNKNEYPELAAAYGDLCKLYEKQLLTKCEVLTLFQTLFSKNEKKLNLLEHHHHHH | soluble |
| MGSDKIHHHHHHQPSSNRYARVDAAILSIPDEYTKKVDTFAEYINRKFKGDEAKMRAIYVWMTHRMAYNVFTTFTSRNEVYSEEKEVQETLSTRKGVCRQFALLFKTLAGKVGIKAYLIDGYGKSGNVVLPEVHEWCVAQVNGEWYFFDPTYDTGYIEDYRFVSAPDDVYFKQLPERFIQTHMPFDPLWQFLKRPYSYSEFEKGVLESGRNVPFFCWQDSLKVYDRQSWVEQLEAARSRILANGKGNDLVDYFLQLNQANTQVGKDSEAIDVYAAATDLQNRAVDSINVFIRYRKAGFRPRKAEAQVRRMIEVSEELTLRADSLINSVHTISPQYKQALLNLRESIMDLAMQIYKHKLFLERYYATKPSLRGNLLRR | not soluble |
| MGGSHHHHHHGMASAQETNQTPGPMLCSTGCGFYGNPRTNGMCSVCYKEHLQRQQNSGRMSPMGTASGSNSPTSDSASVQRADTSLNNCEGAAGSTSEKSRNVPVAALPVTQQMTEMSISREDKITTPKTEVSEPVVTQPSPSVSQPSTSQSEEKAPELPKPKKNRCFMCRKKVGLTGFDCRCGNLFCGLHRYSDKHNCPYDYKAEAAAKIRKENPVVVAEKIQRI | not soluble |
| MMLSNFKRNKYQQHLAQLPRISQNADDVQTLHSPELFRTTLTNAILRAKKRVYIVALYLERDDGGIGILSAIYEAKRQCPELDVRVLVDWHRAQRGRIGTAAENTNADWYCDMAKKHPDTHFPIYGIPVNTREALGVLHLKGFIVDDTVIYSGASLNDVYLHQHQKYRYDRYQLIHNPVLADTMVQYIQTMLSAPAVQRLDHTDRPKSLEIKNDIKQFRQTLRTASYQAPECSANANELTVTPLVGLGKQSPLNKTIHHLMYCADEHLVICTPYFNMPALLVRNIIRLLRDGKKVEIIIGDKTANDFYIPEDQPFKIIGALPYLYEINLRRFLSRLERYIENQQLVVRLWKDGDNSFHLKGMWVDGKWQLLTGNNLNPRAWRLDLENAILIHDPQQVLLQQRLDELDTIRTHTHVVKSYTELESIAQYPVKVRKLIRRLRRIRIDRLISRILLEHHHHHH | not soluble |
| MASEVQAERADVVIVGAGHGGAQAAIALRQNGFEGRVLVIGREPEIPYERPPLSKEYLAREKTFERICIRPAQFWEDKAVEMKLGAEVVSLDPAAHTVKLGDGSAIEYGKLIWATGGDPRRLSCVGADLAGVHAVRTKEDADRLMAELDAGAKNAVVIGGGYIGLEAAAVLTKFGVNVTLLEALPRVLARVAGEALSEFYQAEHRAHGVDLRTGAAMDCIEGDGTKVTGVRMQDGSVIPADIVIVGIGIVPCVGALISAGASGGNGVDVDEFCRTSLTDVYAIGDCAAHANDFADGAVIRLESVQNANDMATAAAKDICGAPVPYKATPWFWSNQYDLKLQTVGLSTGHDNAVLRGDPATRSFSVVYLKGGKVVALDCVNMVKDYVQGKKLVEARAQIAPEQLADAGVPLKEMLA | soluble |
| MKLFERIHQDTEIRQIYDAIGQMEDEEAGWAYHNWFHVTNVVAMTEMILKQLAVSEEYLEAAKIAALLHDVGALQGKAGHALRGKQFAEAYFRKQKICLPYQEEILSSIENHSNGFDSEELMTLALIISDKLDITTSRVAKAGYFVPGMRQFQFLKKIEIMLSEQEVCVSFTAEEELDLEELNAFYFMPKVFKAIAAFSGKIQRRPIVLLNNQEWPVPKQKNPSTVH | not soluble |
| SLSMVLLRGRLLSFRRAPLSIDDTQSYLYIEDGGLLLENGRIAAIGEYADIRETAPEDVEEKDHRPHLIVPGLIDMHLHFPQMQVIGSYAANLLEWLNTYTFPEECRFVESAHAQRIATHFYDELLRHGTTTAAAYCSVHKTSADAFFTEAMKRNMLMIGGKVMMDRNAPQGLLDTPETSYDETRQVIADWHGRGRNHVAITPRFAITSTPKQMEAAQALAQEFPDLFIQTHLSENLDEIKYTCELYPEATDYTDIYVRYGLMGNKTLLGHAIHLSDREADVLSETGAVAVHCPTSNLFIGSGLFPMKKLQRREKPVRIAVATDIGGGSSYSMLRTMDEAYKIQQLLGERLNPLESWYLMTRGNAEALSMVDRIGTLEAGTDADITVLNASSTPAMALKMEVVKSLTEELFLMLTMGDDRTVVETYVAGRAMKSVLA | not soluble |
| GAMGSKISNIFEDVEFCVMSGTDSQPKPDLENRIAEFGGYIVQNPGPDTYCVIAGSENIRVKNIILSNKHDVVKPAWLLECFKTKSFVPWQPRFMIHMCPSTKEHFAREYDCYGDSYFIDTDLNQLKEVFSGIKNSNEQTPEEMASLIADLEYRYSWDCSPLSMFRRHTVYLDSYAVINDLSTKNEGTRLAIKALELRFHGAKVVSCLAEGVSHVIIGEDHSRVADFKAFRRTFKRKFKILKESWVTDSIDKCELQEENQYLI | soluble |
